Data taken from patent publication US20200299396A1 (BALIOPHARMA, published 2020).

Experiments:
[1] = target: T1, human TNFR1 on the cellular surface of HeLa, HT1080 and Kym-1 cells (human, UniProt P19438 30-455); assay: cell-based or functional assay
T1 sequence: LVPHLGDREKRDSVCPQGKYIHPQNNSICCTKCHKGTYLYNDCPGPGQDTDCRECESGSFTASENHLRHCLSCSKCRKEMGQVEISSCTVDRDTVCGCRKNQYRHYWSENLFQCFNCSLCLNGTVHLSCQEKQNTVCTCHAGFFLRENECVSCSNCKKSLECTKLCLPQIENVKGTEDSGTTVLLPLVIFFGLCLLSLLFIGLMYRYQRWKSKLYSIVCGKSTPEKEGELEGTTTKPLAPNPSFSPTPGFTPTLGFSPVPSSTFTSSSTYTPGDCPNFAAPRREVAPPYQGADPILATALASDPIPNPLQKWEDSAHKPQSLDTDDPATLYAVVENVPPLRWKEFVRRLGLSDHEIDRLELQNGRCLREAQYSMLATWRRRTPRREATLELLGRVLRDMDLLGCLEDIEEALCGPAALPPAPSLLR

complement protein C1q = target: T2, complement protein C1q (UniProt P02745 23-245; P02746 28-253; P02747 29-245); assay: ELISA, antibody immobilized, C1q added, n=2; concentration not shown
T2 construct: also called C1q Complement protein

[2] = target: T1, human TNFR1 on the cellular surface of …; assay: cell-based or functional assay; remark: listed apart in the source
[3] = target: T3, Recombinant human TNFR1-Fc fusion protein (human, UniProt P19438 30-211, limits assumed); assay: QCM at 37 C, TNFR1-Fc immobilized at ~94 ΔHz, 1:1 binding algorithm; quartz crystal microbalance, TNFR1 immobilized at ~94 ΔHz
T3 construct: not shown: Fc part
T3 sequence: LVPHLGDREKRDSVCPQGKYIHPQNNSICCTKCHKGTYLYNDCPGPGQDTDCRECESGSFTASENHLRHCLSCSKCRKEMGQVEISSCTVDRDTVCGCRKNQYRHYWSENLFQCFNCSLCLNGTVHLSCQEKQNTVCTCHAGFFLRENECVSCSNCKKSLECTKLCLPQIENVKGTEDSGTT
Experimental: Real-time binding dynamics in protein-protein interactions were determined by quartz crystal microbalance measurements (Cell-200 C-Fast, Attana, Stockholm, Sweden). One of the binding partners (TNFR1-Fc) was chemically immobilized on a LNB Carboxyl Sensor Chip (3623-3103, Attana, Stockholm, Sweden) according to the manufacturer's protocol at a moderate density of ˜94 ΔHz. Binding experiments were performed with samples (analyte) diluted in PBST (PBS, 0.1% Tween 20) between 128 nM and 4 nM (1:2 dilution steps) at pH 7.4 with a flow rate of 25 μl/min at 37° C. The chip was regenerated with 25 μl 20 mM glycine, pH 2.0. Every third measurement, an injection of running buffer was measured which was subtracted from the binding curve prior to data analysis. Data were collected using the software provided by Attana and analyzed by Attaché Office Evaluation software (Attana, Stockholm, Sweden) and TraceDrawe (ridgview instruments, Vange, Sweden).

[4] = target: T3, Recombinant human TNFR1-Fc fusion …; assay: ELISA under equilibrium conditions, TNFR1-Fc coated
Experimental: (§1) Microtiter plates were coated with 100 μl of TNFR1-Fc fusion protein (1 μg/ml in PBS) and incubated at 4° C. overnight. The residual binding sites were blocked with 2% MPBS (skim milk in PBS, 200 μl per well) at room temperature for 2 hours and subsequently washed twice with PBS. 100 μl of the samples diluted in 2% MPBS were incubated at room temperature for 1 hour prior to the last incubation step with 100 μl of the HRP conjugated detection antibodies in 2% MPBS. Bound protein was detected with 100 μl TMB substrate solution (1 mg/ml 3,3′,5,5′-Tetramethylbenzidine[TMB], 0.006% H₂O₂ in 100 mM Na-acetate buffer, pH 6 at RT), the HRP-reaction was stopped by the addition of 50 μl 1 M H₂SO₄ and the absorption at the wavelength of 450 nm was measured using the Infinite microtiter plate reader (TECAN, Maennedorf, Switzerland). Between each incubation step and in advance of the detection, the plates were washed twice times with PBST and twice with PBS.

human Fcγ receptor Ia = target: T4, human Fcγ receptor Ia (human, UniProt P12314 16-288, limits assumed); assay: ELISA, antibody immobilized, human FcγRI added, n=2; concentration not shown
T4 construct: also called human FcγRI; FcγRI

human Fcγ receptor IIb = target: T5, human Fcγ receptor IIb (human, UniProt P31994 46-217, limits assumed); assay: ELISA, antibody immobilized, human FcγRIIb added, n=2; concentration not shown
T5 construct: also called FcγRIIb
T5 sequence (looked up): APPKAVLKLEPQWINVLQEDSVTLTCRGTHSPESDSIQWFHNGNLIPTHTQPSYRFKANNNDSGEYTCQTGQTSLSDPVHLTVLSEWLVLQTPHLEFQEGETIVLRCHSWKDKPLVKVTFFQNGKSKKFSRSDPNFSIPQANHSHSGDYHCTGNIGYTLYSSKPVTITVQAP

human Fcγ receptor IIIa = target: T6, human Fcγ receptor IIIa (human, UniProt P08637 17-208, limits assumed); assay: ELISA, antibody immobilized, human FcγRIII added, n=2; concentration not shown
T6 construct: also called human FcγRIII; FcγRIII

[5] = target: T3, Recombinant human TNFR1-Fc fusion …; assay: ELISA under equilibrium conditions, TNFR1-Fc coated; ELISA under equilibrium conditions
Experimental: as §1

T6 sequence (P08637 17-208 limits assumed): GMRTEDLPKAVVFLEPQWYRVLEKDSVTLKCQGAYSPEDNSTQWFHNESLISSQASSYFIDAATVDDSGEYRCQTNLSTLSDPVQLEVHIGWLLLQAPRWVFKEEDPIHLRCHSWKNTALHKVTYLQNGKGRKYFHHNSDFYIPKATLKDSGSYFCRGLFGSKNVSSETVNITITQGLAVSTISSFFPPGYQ
T2 sequence (P02745 23-245 limits assumed, chain 1 of 3): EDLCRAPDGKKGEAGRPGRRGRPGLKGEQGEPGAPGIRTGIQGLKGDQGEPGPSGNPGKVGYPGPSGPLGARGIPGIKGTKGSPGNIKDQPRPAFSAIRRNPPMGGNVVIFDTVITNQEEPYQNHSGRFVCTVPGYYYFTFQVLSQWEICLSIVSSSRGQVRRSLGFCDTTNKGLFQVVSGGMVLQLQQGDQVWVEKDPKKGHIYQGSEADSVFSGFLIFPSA
T2 sequence (P02746 28-253 limits assumed, chain 2 of 3): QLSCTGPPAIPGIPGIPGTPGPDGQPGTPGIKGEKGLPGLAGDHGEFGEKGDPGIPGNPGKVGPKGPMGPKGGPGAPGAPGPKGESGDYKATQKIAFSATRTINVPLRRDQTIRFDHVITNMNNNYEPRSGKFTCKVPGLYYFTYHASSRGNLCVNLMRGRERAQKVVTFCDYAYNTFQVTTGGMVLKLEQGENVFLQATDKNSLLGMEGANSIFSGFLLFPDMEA
T2 sequence (P02747 29-245 limits assumed, chain 3 of 3): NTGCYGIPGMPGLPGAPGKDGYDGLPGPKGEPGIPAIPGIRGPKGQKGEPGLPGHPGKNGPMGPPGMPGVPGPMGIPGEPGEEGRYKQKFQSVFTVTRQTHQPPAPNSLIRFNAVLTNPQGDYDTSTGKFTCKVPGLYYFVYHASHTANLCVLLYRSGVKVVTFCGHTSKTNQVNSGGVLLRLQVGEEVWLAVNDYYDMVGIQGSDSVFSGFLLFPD
T4 sequence (P12314 16-288 limits assumed): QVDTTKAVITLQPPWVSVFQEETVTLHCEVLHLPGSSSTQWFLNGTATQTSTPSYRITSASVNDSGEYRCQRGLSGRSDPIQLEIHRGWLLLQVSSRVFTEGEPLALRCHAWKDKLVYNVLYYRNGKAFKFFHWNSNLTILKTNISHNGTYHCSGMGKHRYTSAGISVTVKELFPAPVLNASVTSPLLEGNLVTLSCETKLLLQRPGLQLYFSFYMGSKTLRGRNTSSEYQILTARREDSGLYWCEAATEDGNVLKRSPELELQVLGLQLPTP

B1: Fab 13.7 (Fab, V domains shown)
VH: HVQLVQSGAEVKKPGSSVKVSCKASGYTFTDFYINWVRQAPGQGLEWIGEIVPSQGEAKYNDKFKARVTITADKSTSTAYMELSSLRSEDTAVYYCARWDFLDYWGQGTTVTVSS
VL: DVQMTQSPSSLSASVGDRVTITCRSSQSLLHSNGNTYLHWYQQKPGKAPKLLIYTVSNRFSGVPSRFSGSGSGTDFTLTISSLQPEDFATYYCSQSTHVPYTFGGGTKVEIKR
[1]
  IC50, Cell death induction [nM] (Kym-1 cells, TNF-induced): 9.5 nM
  IC50, IL-6 [nM] (IL-6 release from HeLa cells, 0.1 nM TNF): 37.1 nM
  IC50, IL-8 [nM] (IL-8 release from HT1080 cells, 0.1 nM TNF): 12.7 nM

B2: Atrosimab (antibody)
heavy: HVQLVQSGAEVKKPGSSVKVSCKASGYTFTDFYINWVRQAPGQGLEWIGEIVPSQGEAKYNDKFKARVTITADKSTSTAYMELSSLRSEDTAVYYCARWDFLDYWGQGTTVTVSSGTGGGSGPSVFLFPPKPKDTLMISRTPEVTCVVVDVSHEDPEVKFNWYVDGVEVHNAKTKPREEQYNSTYRVVSVLTVLHQDWLNGKEYKCKVSNKGLPSSIEKTISKAKGQPREPSVFIFPPSDEQLKSGTASVVCLVNNFYPRDIAVEWEVDNALQSGNSQESVTEQDSKDSTYSLSSTLTLSKADYEKHKVYSCSVMHEALHNHYTQKSFNRGEC
light: DVQMTQSPSSLSASVGDRVTITCRSSQSLLHSNGNTYLHWYQQKPGKAPKLLIYTVSNRFSGVPSRFSGSGSGTDFTLTISSLQPEDFATYYCSQSTHVPYTFGGGTKVEIKGTGGGSGPSVFLFPPKPKDTLMISRTPEVTCVVVDVSHEDPEVKFNWYVDGVEVHNAKTKPREEQYNSTYRVVSVLTVLHQDWLNGKEYKCKVSNKGLPSSIEKTISKAKGQPREPSVFPLAPSSKSTSGGTAALGCLVKDYFPSDIAVEWESGALTSGVHTFPAVLQSSGLYSLSSVVTVPSSSLGTQTYSCSVMHEALHNHYTQKSVEPKSC
notes: The Fc is modified to reduce effector functions; Produced in CHO cells; also called Fv13.7-Fc1k; VHkC/VL1C heterodimer
Complement protein C1q
  binding result: no binding
[1]
  IC50, Cell death induction [nM] (Kym-1 cells, TNF-induced): 16.2 nM
  IC50, IL-6 [nM] (IL-6 release from HeLa cells, 0.1 nM TNF): 54.5 nM
  IC50, IL-8 [nM] (IL-8 release from HT1080 cells, 0.1 nM TNF): 24.2 nM
[2]
  fold more potent inhibition compared to ATROSAB, IL-6 release assay: 3 fold
  fold more potent inhibition compared to ATROSAB, IL-8 release assay: 3.5 fold
  fold more potent inhibition compared to ATROSAB, cell death induction assay: 4 fold
[3]
  Kd: 2.7 nM
  koff: 0.00098 s⁻¹
  kon: 370000 M⁻¹ s⁻¹
[4]
  fold reduction in binding activity compared to ATROSAB: 4 fold
  fold reduction in binding activity compared to Fab 13.7: 2 fold
Human Fcγ receptor Ia
  binding result: no binding
Human Fcγ receptor IIb
  binding result: no binding
Human Fcγ receptor IIIa
  binding result: no binding
[5]
  EC50: 0.4 nM
